Measurements as given in the supplement of paper PMC10065799, “High-throughput profiling of sequence recognition by tyrosine kinases and SH2 domains using bacterial peptide display” (eLife, 2023).

Key:
Grb2 SH2 = Grb2 SH2 (UniProt P62993); experiment: SH2 binding enrichment of the phosphorylated peptide, bacterial display (enrichment ratio); higher = better substrate or ligand; peptides without Tyr show the background
SHP2-C SH2 = experiment: as above
c-Src SH2 = experiment: as above
MERTK = MERTK (UniProt Q12866); experiment: phosphorylation enrichment, bacterial display (enrichment ratio); higher = better substrate or ligand; peptides without Tyr show the background
FGFR1 = FGFR1 (UniProt P11362); experiment: as above
c-Src = experiment: as above
Jak2 = Jak2 (UniProt O60674); experiment: as above
Fes = Fes (UniProt P07332); experiment: as above
FGFR3 = FGFR3 (UniProt P22607); experiment: as above
Hck = Hck (UniProt P08631); experiment: as above
AncSZ = experiment: as above
EPHB1 = EPHB1 (UniProt P54762); experiment: as above
Fyn = Fyn (UniProt P06241); experiment: as above
c-Abl (mouse) = experiment: as above
Fer (mouse) = experiment: as above
EPHB2 = EPHB2 (UniProt P29323); experiment: as above
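For SH2 binding enrichment of the phosphorylated peptide, bacterial display in this document: peptide library displayed on the E. coli surface as eCPX fusions, selected cells deep-sequenced, score is each peptide's frequency after selection divided by its frequency in the input.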
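For phosphorylation enrichment, bacterial display in this document: 11-residue human phosphosite peptides and single-mutation variants displayed on the E. coli surface, counted by deep sequencing, each peptide's frequency after selection divided by its frequency in the unselected input library; frequency after pTyr selection over input frequency; kinase dosed for 20-30% of maximal phosphorylation in three min.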

Chain of EPHB2 (P29323 whole entry, looked up, the tested form may be a part): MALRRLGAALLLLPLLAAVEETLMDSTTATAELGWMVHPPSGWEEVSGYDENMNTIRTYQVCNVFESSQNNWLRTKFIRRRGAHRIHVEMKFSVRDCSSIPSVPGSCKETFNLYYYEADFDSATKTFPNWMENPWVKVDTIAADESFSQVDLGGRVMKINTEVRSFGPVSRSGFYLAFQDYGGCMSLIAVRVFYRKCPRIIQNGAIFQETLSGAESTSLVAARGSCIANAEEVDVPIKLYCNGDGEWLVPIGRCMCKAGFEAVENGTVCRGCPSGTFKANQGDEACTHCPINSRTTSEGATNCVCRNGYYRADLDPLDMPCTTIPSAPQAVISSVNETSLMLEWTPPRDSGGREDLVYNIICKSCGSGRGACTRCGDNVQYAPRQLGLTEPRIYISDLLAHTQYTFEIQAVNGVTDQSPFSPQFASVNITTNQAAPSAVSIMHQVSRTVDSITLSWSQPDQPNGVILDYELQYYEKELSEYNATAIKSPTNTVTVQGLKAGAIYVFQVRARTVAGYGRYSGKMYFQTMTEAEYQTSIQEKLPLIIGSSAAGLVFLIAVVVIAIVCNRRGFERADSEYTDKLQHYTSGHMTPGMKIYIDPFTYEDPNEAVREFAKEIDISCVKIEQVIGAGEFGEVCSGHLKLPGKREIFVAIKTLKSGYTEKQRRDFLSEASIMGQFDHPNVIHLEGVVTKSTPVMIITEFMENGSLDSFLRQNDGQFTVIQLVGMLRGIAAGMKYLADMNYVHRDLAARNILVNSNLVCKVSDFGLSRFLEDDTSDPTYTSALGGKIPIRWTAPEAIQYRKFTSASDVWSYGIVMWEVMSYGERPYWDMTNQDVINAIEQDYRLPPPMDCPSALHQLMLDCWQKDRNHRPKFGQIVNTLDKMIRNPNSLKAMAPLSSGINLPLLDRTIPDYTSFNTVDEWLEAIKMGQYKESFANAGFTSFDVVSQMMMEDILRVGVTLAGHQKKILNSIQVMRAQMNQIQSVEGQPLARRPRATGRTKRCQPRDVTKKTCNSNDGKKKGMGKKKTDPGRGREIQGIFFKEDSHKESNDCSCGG
Chain of FGFR3 (P22607 whole entry, looked up): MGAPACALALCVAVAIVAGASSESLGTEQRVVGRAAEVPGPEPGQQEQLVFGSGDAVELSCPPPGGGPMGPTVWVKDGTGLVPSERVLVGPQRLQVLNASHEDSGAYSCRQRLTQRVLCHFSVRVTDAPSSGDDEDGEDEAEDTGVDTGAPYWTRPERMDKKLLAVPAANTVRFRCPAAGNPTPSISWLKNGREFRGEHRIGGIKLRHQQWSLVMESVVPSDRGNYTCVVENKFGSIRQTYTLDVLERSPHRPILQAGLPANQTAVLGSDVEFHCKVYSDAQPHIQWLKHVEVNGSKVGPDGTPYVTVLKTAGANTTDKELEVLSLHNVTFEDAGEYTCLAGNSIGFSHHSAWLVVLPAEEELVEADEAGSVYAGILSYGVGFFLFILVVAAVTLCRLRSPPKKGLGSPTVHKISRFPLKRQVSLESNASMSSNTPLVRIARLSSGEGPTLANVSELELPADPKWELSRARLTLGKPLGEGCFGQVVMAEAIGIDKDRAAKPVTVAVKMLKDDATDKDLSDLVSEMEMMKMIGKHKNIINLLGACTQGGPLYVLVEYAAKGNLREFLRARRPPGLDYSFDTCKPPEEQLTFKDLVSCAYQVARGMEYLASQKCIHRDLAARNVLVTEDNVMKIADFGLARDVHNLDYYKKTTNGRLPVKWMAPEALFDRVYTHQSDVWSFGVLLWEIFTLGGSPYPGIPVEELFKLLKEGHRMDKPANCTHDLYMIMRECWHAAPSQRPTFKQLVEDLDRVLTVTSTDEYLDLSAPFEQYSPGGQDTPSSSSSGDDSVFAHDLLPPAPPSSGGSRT
Chain of Jak2 (O60674 whole entry, looked up): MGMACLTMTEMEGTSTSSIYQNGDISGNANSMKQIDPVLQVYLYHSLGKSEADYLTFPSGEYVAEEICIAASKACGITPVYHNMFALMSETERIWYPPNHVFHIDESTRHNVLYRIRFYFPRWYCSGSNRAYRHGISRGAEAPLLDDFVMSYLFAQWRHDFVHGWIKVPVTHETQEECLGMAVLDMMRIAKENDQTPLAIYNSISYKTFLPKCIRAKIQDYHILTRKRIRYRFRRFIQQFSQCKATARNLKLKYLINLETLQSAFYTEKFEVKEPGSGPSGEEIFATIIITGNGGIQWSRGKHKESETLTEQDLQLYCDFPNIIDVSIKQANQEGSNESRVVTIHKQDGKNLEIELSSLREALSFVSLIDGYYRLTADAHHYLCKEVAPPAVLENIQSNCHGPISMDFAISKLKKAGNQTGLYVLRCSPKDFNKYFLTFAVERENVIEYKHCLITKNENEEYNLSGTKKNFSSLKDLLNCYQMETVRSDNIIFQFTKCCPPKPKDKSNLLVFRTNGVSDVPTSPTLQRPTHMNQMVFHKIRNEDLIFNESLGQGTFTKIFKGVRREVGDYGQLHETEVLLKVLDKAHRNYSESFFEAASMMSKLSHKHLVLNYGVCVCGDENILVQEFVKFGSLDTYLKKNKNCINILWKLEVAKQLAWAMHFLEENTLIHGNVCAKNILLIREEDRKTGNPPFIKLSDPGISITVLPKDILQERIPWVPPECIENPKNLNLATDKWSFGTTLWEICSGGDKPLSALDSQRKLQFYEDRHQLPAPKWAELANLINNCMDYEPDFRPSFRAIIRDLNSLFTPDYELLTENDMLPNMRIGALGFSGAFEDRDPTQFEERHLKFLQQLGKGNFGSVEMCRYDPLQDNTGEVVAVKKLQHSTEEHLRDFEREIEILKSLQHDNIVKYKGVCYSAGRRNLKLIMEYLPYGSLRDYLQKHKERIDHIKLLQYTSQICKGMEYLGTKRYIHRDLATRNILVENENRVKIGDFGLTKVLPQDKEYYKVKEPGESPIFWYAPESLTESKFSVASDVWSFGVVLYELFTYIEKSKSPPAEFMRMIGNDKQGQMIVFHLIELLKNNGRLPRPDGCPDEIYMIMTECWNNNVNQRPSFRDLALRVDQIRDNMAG
Chain of Fes (P07332 whole entry, looked up): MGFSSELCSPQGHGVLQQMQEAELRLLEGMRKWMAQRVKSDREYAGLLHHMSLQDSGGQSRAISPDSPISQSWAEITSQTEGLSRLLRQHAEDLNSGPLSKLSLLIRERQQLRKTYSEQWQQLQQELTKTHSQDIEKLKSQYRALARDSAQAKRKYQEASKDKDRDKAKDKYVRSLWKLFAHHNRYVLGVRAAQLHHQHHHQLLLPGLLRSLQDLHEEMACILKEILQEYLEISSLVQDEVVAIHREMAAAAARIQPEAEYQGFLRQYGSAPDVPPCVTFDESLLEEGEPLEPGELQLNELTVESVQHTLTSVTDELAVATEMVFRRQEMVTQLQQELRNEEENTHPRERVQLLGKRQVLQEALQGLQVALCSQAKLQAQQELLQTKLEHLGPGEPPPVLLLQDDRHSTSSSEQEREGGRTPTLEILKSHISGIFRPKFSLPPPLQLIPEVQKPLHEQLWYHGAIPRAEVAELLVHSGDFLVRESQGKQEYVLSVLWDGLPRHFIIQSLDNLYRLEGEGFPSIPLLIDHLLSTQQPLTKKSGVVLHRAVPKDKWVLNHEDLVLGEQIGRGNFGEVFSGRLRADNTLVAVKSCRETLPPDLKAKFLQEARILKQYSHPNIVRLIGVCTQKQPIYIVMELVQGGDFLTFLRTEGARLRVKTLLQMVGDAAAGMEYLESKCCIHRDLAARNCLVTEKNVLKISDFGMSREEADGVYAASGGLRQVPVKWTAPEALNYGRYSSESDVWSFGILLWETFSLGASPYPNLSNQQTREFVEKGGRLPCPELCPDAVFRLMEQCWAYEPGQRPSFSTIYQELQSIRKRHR
Chain of Hck (P08631 whole entry, looked up): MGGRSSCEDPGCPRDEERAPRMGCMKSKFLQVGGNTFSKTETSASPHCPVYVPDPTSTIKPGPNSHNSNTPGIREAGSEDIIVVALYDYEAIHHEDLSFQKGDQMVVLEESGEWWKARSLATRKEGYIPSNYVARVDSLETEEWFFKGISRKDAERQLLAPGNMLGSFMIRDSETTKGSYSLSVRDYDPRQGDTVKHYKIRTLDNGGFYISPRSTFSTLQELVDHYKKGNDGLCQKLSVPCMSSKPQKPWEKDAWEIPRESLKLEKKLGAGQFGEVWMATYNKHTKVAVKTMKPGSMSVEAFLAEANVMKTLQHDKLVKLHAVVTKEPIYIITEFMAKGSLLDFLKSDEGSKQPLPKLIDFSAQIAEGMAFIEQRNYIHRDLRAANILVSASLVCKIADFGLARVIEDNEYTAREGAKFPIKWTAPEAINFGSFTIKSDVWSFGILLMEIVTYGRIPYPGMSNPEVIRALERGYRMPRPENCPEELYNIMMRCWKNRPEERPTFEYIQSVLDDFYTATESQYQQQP
Chain of Fyn (P06241 whole entry, looked up): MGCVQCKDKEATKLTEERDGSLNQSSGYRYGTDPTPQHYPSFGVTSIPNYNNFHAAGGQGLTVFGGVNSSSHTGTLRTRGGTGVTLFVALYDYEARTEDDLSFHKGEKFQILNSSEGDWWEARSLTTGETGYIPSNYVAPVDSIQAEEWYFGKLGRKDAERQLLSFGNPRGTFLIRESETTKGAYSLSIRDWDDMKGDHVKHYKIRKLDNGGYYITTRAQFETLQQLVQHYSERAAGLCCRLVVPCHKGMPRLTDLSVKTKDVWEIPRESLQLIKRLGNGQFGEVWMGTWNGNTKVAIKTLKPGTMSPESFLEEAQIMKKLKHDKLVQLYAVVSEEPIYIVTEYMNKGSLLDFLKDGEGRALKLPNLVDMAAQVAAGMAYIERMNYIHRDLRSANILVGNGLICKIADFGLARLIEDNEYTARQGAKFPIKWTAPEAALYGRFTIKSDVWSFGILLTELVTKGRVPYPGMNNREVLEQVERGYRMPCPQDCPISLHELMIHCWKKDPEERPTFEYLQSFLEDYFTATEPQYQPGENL

| SH2 binding enrichment (Grb2 SH2) | SH2 binding enrichment (SHP2-C SH2) | SH2 binding enrichment (c-Src SH2) | Sequence | phosphorylation enrichment (MERTK) | phosphorylation enrichment (FGFR1) | phosphorylation enrichment (c-Src) | phosphorylation enrichment (Jak2) | phosphorylation enrichment (Fes) | phosphorylation enrichment (FGFR3) | phosphorylation enrichment (Hck) | phosphorylation enrichment (AncSZ) | phosphorylation enrichment (EPHB1) | phosphorylation enrichment (Fyn) | phosphorylation enrichment (c-Abl (mouse)) | phosphorylation enrichment (Fer (mouse)) | phosphorylation enrichment (EPHB2) |
| --- | --- | --- | --- | --- | --- | --- | --- | --- | --- | --- | --- | --- | --- | --- | --- | --- |
| 0.78 | 0.739 | 0.521 | GESKDYALHAG [SVIL_Y185_V189A] | 0.36 | 0.365 | 0.413 | 0.493 | 0.566 | 0.455 | 0.38 | 0.548 | 0.479 | 0.421 | 0.488 | 0.366 | 0.527 |
| 0.787 | 0.62 | 0.451 | GGFTCCCDGKK [PROS1_Y266_Y266C_YF] | 0.468 | 0.509 | 0.546 | 1.16 | 1.34 | 0.755 | 0.504 | 1.12 | 0.736 | 0.463 | 0.977 | 0.542 | 0.659 |
| 0.743 | 0.647 | 0.355 | GGPAEYLRRAS [PKLR_Y38_G37E] | 0.361 | 0.363 | 0.285 | 0.508 | 0.76 | 0.415 | 0.374 | 0.954 | 0.41 | 0.427 | 0.675 | 0.367 | 0.334 |
| 0.87 | 0.78 | 0.389 | GGTPLYRDRQG [AGXT_Y194_M195R] | 0.364 | 0.44 | 0.358 | 0.4 | 0.499 | 0.423 | 0.398 | 0.652 | 0.383 | 0.378 | 0.5 | 0.415 | 0.435 |
| 0.667 | 0.524 | 0.455 | GGYTWYCDGKK [PROS1_Y266_C265W] | 0.359 | 0.455 | 0.399 | 1.47 | 1.24 | 0.795 | 0.414 | 1.1 | 0.641 | 0.362 | 0.882 | 0.524 | 0.537 |
| 0.888 | 0.626 | 0.384 | GHGEEYPAAGA [NOTCH3_Y2221] | 0.379 | 0.413 | 0.377 | 0.549 | 0.821 | 0.719 | 0.431 | 0.682 | 0.41 | 0.426 | 0.469 | 0.433 | 0.327 |
| 0.71 | 1.26 | 0.835 | GITVAYTIPKK [UBA5_Y372] | 0.528 | 0.337 | 0.396 | 0.669 | 0.739 | 0.534 | 0.317 | 0.763 | 0.441 | 0.475 | 0.702 | 0.384 | 0.331 |
| 0.76 | 0.697 | 0.65 | GKAFIYASHIV [ZNF573_Y229] | 0.408 | 0.427 | 1.21 | 0.869 | 1 | 0.602 | 0.604 | 0.802 | 0.557 | 0.666 | 0.996 | 1.16 | 0.42 |
| 0.878 | 0.965 | 0.575 | GKTFTYRSVFF [ZNF80_Y200] | 0.42 | 0.388 | 0.412 | 0.744 | 0.951 | 0.562 | 0.374 | 0.809 | 0.464 | 0.43 | 0.693 | 0.457 | 0.466 |
| 1.26 | 1.31 | 0.671 | GLAELYEYKKK [CKAP5_Y1854] | 0.303 | 0.7 | 0.489 | 0.393 | 0.719 | 0.546 | 0.924 | 0.671 | 0.479 | 0.569 | 0.464 | 0.32 | 0.397 |
| 0.942 | 0.967 | 0.448 | GLAKEYIDPET [CSNK1G2_Y195] | 0.4 | 0.544 | 0.454 | 0.904 | 0.941 | 0.604 | 0.449 | 0.743 | 0.527 | 0.494 | 0.592 | 0.509 | 0.462 |
| 0.944 | 0.712 | 0.525 | GLGGGCGGASG [KRT8_Y54_Y54C] | 0.384 | 0.494 | 0.404 | 0.508 | 0.817 | 0.544 | 0.505 | 0.582 | 0.465 | 0.433 | 0.444 | 0.449 | 0.499 |
| 0.645 | 0.851 | 0.495 | GPIIRYDLGGA [CYP11B1_Y81_F79I] | 0.477 | 0.617 | 0.405 | 0.626 | 0.723 | 0.498 | 0.384 | 0.648 | 0.585 | 0.412 | 0.518 | 0.396 | 0.366 |
| 0.692 | 0.739 | 0.532 | GPTLSYGRDGR [MATR3_Y158] | 0.488 | 0.363 | 0.332 | 0.449 | 0.526 | 0.377 | 0.379 | 0.435 | 0.276 | 0.33 | 0.369 | 0.306 | 0.347 |
| 1.04 | 0.689 | 0.63 | GQECKYPPTQD [METAP2_Y137_E136K] | 0.553 | 0.569 | 0.504 | 1.03 | 1.14 | 0.638 | 0.52 | 0.86 | 0.521 | 0.515 | 0.727 | 0.511 | 0.507 |
| 1.32 | 1.49 | 1.43 | GRFCGYKSKHG [EPHA3_Y570] | 0.376 | 0.374 | 0.363 | 0.726 | 0.664 | 0.638 | 0.377 | 0.469 | 0.506 | 0.321 | 0.587 | 0.426 | 0.368 |
| 1.07 | 0.832 | 0.802 | GRTNIYKNKKD [SLC26A3_Y520] | 0.43 | 0.369 | 0.434 | 0.66 | 0.648 | 0.475 | 0.447 | 0.467 | 0.415 | 0.308 | 0.721 | 0.349 | 0.393 |
| 0.799 | 0.764 | 0.825 | GSCQEYTGAPY [NAXD_Y85_G81S] | 0.432 | 0.558 | 0.505 | 0.805 | 0.894 | 0.7 | 0.545 | 1.14 | 0.573 | 0.441 | 0.668 | 0.494 | 0.537 |
| 1.12 | 1.19 | 0.833 | GSSKIYFLHAD [TLR5_Y108_P112A] | 0.797 | 0.8 | 0.893 | 0.954 | 0.984 | 0.731 | 0.712 | 0.862 | 0.492 | 0.951 | 0.579 | 0.423 | 0.557 |
| 1.14 | 0.962 | 0.646 | GSTLSYFGLAA [P2RX7_Y343] | 0.892 | 1.83 | 0.629 | 6.12 | 1.11 | 1.6 | 0.63 | 0.725 | 0.483 | 0.571 | 0.525 | 0.43 | 0.621 |
| 0.67 | 1.15 | 0.483 | GTATTYLCGVK [ALPL_Y117_A116T] | 0.493 | 0.595 | 0.472 | 0.946 | 1.13 | 0.758 | 0.582 | 0.914 | 0.5 | 0.479 | 0.811 | 0.495 | 0.8 |
| 0.969 | 0.54 | 0.472 | GVKLTYGDAQN [SLC28A1_Y404] | 0.397 | 0.53 | 0.499 | 1.63 | 0.872 | 0.473 | 0.369 | 0.726 | 0.379 | 0.479 | 0.813 | 0.397 | 0.45 |
| 0.949 | 0.748 | 0.479 | GVLKEYVVKVL [CPS1_Y529_G530V] | 0.32 | 0.383 | 0.355 | 0.814 | 1.06 | 0.546 | 0.386 | 0.989 | 0.477 | 0.389 | 0.67 | 0.384 | 0.491 |
| 0.88 | 0.725 | 0.584 | GVSFIYTIDGS [DCX_Y105_R102S_YF] | 0.552 | 0.496 | 1.98 | 1.54 | 1.31 | 0.753 | 0.976 | 1.43 | 0.694 | 2.18 | 0.927 | 0.491 | 0.532 |
| 0.921 | 0.669 | 0.692 | GYRPVYSEDEQ [CHST6_Y362] | 0.48 | 0.471 | 0.636 | 1.16 | 1.24 | 0.806 | 0.49 | 1.26 | 0.677 | 0.61 | 0.774 | 0.643 | 0.762 |
| 0.796 | 0.563 | 0.544 | GYSRHCEDGYP [CTNND1_Y217_Y217C] | 0.446 | 0.46 | 0.489 | 0.879 | 0.972 | 0.556 | 0.5 | 0.869 | 0.521 | 0.44 | 0.928 | 0.465 | 0.83 |
| 1.97 | 1.41 | 1.98 | HAVFVCDICHV [TWNK_Y508_Y508C_YF] | 0.689 | 0.506 | 0.807 | 0.948 | 0.836 | 0.775 | 0.603 | 0.933 | 0.627 | 0.455 | 0.641 | 0.696 | 0.631 |
| 0.6 | 0.364 | 0.381 | HAVVDYMRRQK [ATM_Y1915_L1910H] | 0.654 | 0.799 | 0.539 | 0.892 | 1.14 | 1 | 0.694 | 1.16 | 0.701 | 0.634 | 0.595 | 0.535 | 1.03 |

| Sequence | SH2 binding enrichment (Grb2 SH2) | SH2 binding enrichment (SHP2-C SH2) | SH2 binding enrichment (c-Src SH2) | phosphorylation enrichment (MERTK) | phosphorylation enrichment (FGFR1) | phosphorylation enrichment (c-Src) | phosphorylation enrichment (Jak2) | phosphorylation enrichment (Fes) | phosphorylation enrichment (FGFR3) | phosphorylation enrichment (Hck) | phosphorylation enrichment (AncSZ) | phosphorylation enrichment (EPHB1) | phosphorylation enrichment (Fyn) | phosphorylation enrichment (c-Abl (mouse)) | phosphorylation enrichment (Fer (mouse)) | phosphorylation enrichment (EPHB2) |
| --- | --- | --- | --- | --- | --- | --- | --- | --- | --- | --- | --- | --- | --- | --- | --- | --- |
| GKGGSYSQAAC [HLA-B_Y344] | 0.971 | 0.881 | 0.746 | 0.377 | 0.385 | 0.396 | 0.569 | 0.649 | 0.444 | 0.419 | 0.452 | 0.352 | 0.342 | 0.625 | 0.408 | 0.365 |
